# A protein production outcome set (Wang et al. 2014)
# Test: label from the status in PepcDB records
row,Sequence,protein production
1,ERRLCAILAADMAGYSRLMERNETDVLNRQKLYRRELIDPAIAQAGGQIVKTTGDGMLARFDTAQAALRCALEIQQAMQQREEDTPRKERIQYRIGINIGDIVLEDGDIFGDAVNVAARLEAISEPGAICVSDIVHQITQDRVSEPFTDLGLQKVKNITRPIRVWQWVPDADRDQSHDPQPSHVQH,not failed
2,MSSFAELLQQGASQAWLYFPSAILLGALHGLEPGHSKTMMAAFIVAIRGTVKQAVLLGLASTLSHTAVVWLVAMAGMYLGQNLNAETTEPYFQLASAAIIITIALWMLWRTWRGEQMWRFEEGDDLQHDYHHHDEMQRIDTGHGRIELSIFEEGVPPRWRLNILTGHAWSAAEMSLLTTRPDGLAQQFRFVDRGDYLESVDEIPEPHEFTARLSLGHAGHSHDYDLEFHEHGHGHGHDHAELEGLELSLEGYQDAHERAHANDIRKRFSNRNVTTGQIILFGLTGGLIPCPAAITVLLLCLQVKEVALGAVLVLCFSIGLAITLVTVGAAAAIGARQASNRWPWLGAVARRAPYLSSLLIIGVGIYVGVHGWIGLNA,failed
3,MEYALLQHYWWFLVSLLGALLVFLLFVQGGQSFLFSLGKDELTQKMMVNSTGRKWEFTFTTLVTFGGALFASFPLFYSTSFGGAYWVWMLILFCFIIQAVSYEYQSKHGNVWGRKTYQILLFINGVLAPVLLGTAVSTFFTGSSFVVNKMAMFDLSGGNQIVSAWQPFNGWQLRGLEAVLNLWNVVLGLAVFFLARVSALLYFINNIDDESLYAAAKRRLWANTVAFLIFFLAYIAFLLTTEGFAVNPVSKEVYMEPYKYLYNFLDMPAVLAVFLLGVILVLGGIGLTLLRKGFKRGIWLHGTGTVLTVLALLLVAGWNDTSWYPSTYDLQSSLTIENASSSHFTLKVMSYVSLLIPFVLAYIFYAWRALDIRKITKKEMEQDDHVY,failed
4,YLASDGKTIIYVGRNNLQNEELTFKMARKEELWFHAKDIPGSHVVISGNLDPSDAVKTDAAELAAYFSQGRLSNLVQVDMIEVKKLNK,failed
5,MLKRLWQIFGPVICALVLVVVVIYAYPQGRKYSYEAEKRSAVTLTNENFKSRKNKTTALSDQNHRFVPYFGSSEWLRFDALHPAVLAEKYDRNYRPYFIGQRGSASLNQYLGMQQMLPELQNGTAVYVLSPQWFTKKGYNSAAFQQFFNNDQLSSFLSQNQTDANSQYAAKRILEMKPEITMKSQLSKVAKGQDLNTVDKTYIQFMAELNRREDSLFSPLAASNNANYDKKVLPYLKELPDQFSYDALDQLAVRDAEAHTKSNDFGIDDRFYKERLSKKIGKLKGFQKNLSYEVSQEYGDLQLVLNQFAKSNTNVIFVIPPVNSKWMAYTGLNQDMYDATVSKIRYQLESQGFTNIADFSKDGDQPYFMQDTIHMGWKGWVAFDRVVNSFVSNPTPAPSYKLNDRFYSKDWSGYTGTPSQFKLEHHHHHH,not failed
6,MTTWKELTDNNPAHSENYAQRWRNLAAAGNDIYGEARLIDAMAPRGAKILDAGCGQGRIGGYLSKQGHDVLGTDLDPILIDYAKQDFPEARWVVGDLSVDQISETDFDLIVSAGNVMGFLAEDGREPALANIHRALGADGRAVIGFGAGRGWVFGDFLEVAERVGLELENAFESWDLKPFVQGSEFLVAVFTKK,not failed
7,MEDSGAILCQISIFKDMLDQVNREIEANIQVTREIESQIGACSEIESSLSLKEPELTRSFLASQFEISGLISVTADSRNSLKLLEDEICCLRSEHSELITKTNREAVNINNCIVLDFV,failed
8,MTMADETIILNVLGQYTRAHDRRDPDAMAALFAPEATIEIVDAVGGASRSISRLEGRDAIRVAVRQMMAPHGYRAWSQNVVNAPIIVIEGDHAVLDAQFMVFSILAAEVPDGGWPTGTFGAQGRIVPIEAGQYRLTLRTVADGWVISAMRIEHRLPMAFG,not failed
9,MSTGQAPEKSNFSQRCSLLSRYLKEKGSFGNINMGLARKSDLELAGKFDLKGQQNVIKKVETSETRPFKLIQKFSIGEASTSTEDKAIYIDLSEPAKVAPESGNSQLTIFFGGKVMVFNEFPEDKAKEIMEVAKEANHVAVDSKNSQSHMNLDKSNVVIPDLNEPTSSGNNEDQETGQQHQVVERIARRASLHRFFAKRKDRAVARAPYQVNQHGSHLPPKPEMVAPSIKSGQSSQHIATPPKPKAHNHMPMEVDKKEGQSSKNLELKL,failed
10,MILGIDVGGTSVKFGLVTPEGEIQNATRFMTADWVNGIGFVESMKLEIGNFLKQYPIVKGVGIGWPGLVSLDRTKVILLPNIPSVVNVPIVEILRSEFPHIHFKIENDAKCAALGEYYFGENKRMQTFILLALGTGVGSGVMMNGKLFIGGRGNGTEVGHMLTTRGKSLENQVGINHLIAYTHEQLALDVAKKSSLHTIAELSPKVIADHAAQGDALALAVWADIGTIIGESLVNIVRVMDLNNILLGGGISGAFDYFVPNLKKAMLEHLPTYYTDDMYIGKATLENDAGLLGAAGLIMEAI,not failed
11,MSKFTIHTIETAPERVKETLRTVKKDNGGYIPNLIGLLANAPTALETYRTVGEINRRNSLTPTEREVVQITAAVTNGCAFCVAGHTAFSIKQIQMAPDLLEALRNATPIDDDPKLDTLAKFTIAVINTKGRVGDEAFADFLEVGYTPENALDVVLGVSLASLCNYANNMADTPINPELQQYVK,not failed
12,MILNIVTIVSNFIFIALFYQLFVDLFDWSKMIKMSPQNISKLKVFILLISIVGGYVVSHFLLEVIQLCQSIFWALQ,failed
13,MDEGRRINIPKIGAVKCKFHRLLEGTPKTLQIVLDVNEWYAVYTCEVPVQPLPETGSTVGVDVGTRYFAITSDGEFVHNPRHLGSALKKLRVQQRTVSRRKKGGNRRRKAVGQVAKTHRKIRRSRQDFHHKVAVKLVRENDLIAHEDLRVSNVVKSNLARSISDVGWSAFFDILRGKAESAGRVVVRVPPQYTSQRCHACGHTCRENRNNEVFKCVSCGHEDHADWNAAKNILGRAVPSGVNGSGVSHAVA,failed
14,MYNPVGVAAIGLGRWAYVMADAYTKSEKLKLVTCYSRTEDKREKFGKRYNCAGDATMEALLAREDVEMVIITVPNDKHAEVIEQCARSGKHIYVEKPISVSLDHAQRIDQVIKETGVKFLCGHSSRRLGALRKMKEMIDTKEIGEVSSIEAVFSNERGLELKKGNWRGEPATAPGGPLTQLGVHQIDNLQFLLGPVARVFNFGKPMYTEVENITVNQTLLEFEDGKQAYLGTNWACPGVFSINVYGTKANLFYQLDFSWWSNSDVTDEHSTLIKREFASMSDDPDNRILRDVKVDFESVDHLRVEVEEVADVIRNGGETEIGAEASLRNLAVVLAAVKSVHEKRPVEIAEIIG,not failed
15,MNTFAIPAPLIDAWRTTLETLRNLTGLGFGLLTRENGGELEIMVTAGELPSPFAEGYCLKGGPEGPLCAVVHTLARSLLIPDTTADARWASNPAVKAGVRAYFGLPLRLPTGALFGTLCLGSMSPVTGHDAVLKPLHCFATLVEQHIALLSTNALLRSQLDALPGASFASDPHGQMLFASNRCGSLLDLHPADIPGSDVDTVFNRIAALCESPEECHAILRRSFTLGGPSNGKLAFDDGRTIRWQARRLREDAGSVLGCTWFLEDATAELQARAGLTRSEALFRGLFNNAAVGIVLLDRQGFVVRSNVACARMLGTSPEQMHGLSFRAVLPPEDADQHLEEMQSLAEGETDELHGCWEMLHRNGSRLRVDLHGARLPGSGEEVVMLVGVDVTEQWRTERALAESERRYRALFDNAQAGIFRTSLADGTFLEANLRMAQMFGYDDVATFMAEYRAAENYVDPADRALMLDRLRTSGSFATMETHMRRRDGTTTWFLYSGTLDGDTIIGVANEISEMRATQEALRRSEERYRALFDNAADGLLLYEADGTLIDVNETIARRLGESREAIVGRNVASIVEPEVLERVRPRLAEILETGHASFESVHRTAMGPVNVEVHARRIEFEGRFVVLSSARDITERKNLEAALLREATTDPLTGGRNRRQFFVDANREFARALRHDSGLAVLMLDIDHFKNVNDLYGHQAGDEVLRAFAACCVEALRAYDVFGRLGGEEFAALLPAASPEEAMETAERLRKRVERRSVVYEGTALQCTVSVGVTSLAAADLGFDDMLRRADRALYAAKDHGRNRSEMAPMPMVPAEIPPPRKPFRE,failed
16,MSHTEAATVHSTAPASHPVRIALIGAGRIGSNHAEIVARLVPGASLVAVSDPVGESAQRLATTLGASLATTTVDDVLTSDEVDAVLITAPARSHTDLVVAAAAAGKHVFVEKPMAVTLADADRAIAAAADAGIVLQVGFNRRFAPGFAAARAAIDAQKVGAPQLLRSLTRDPGPYTADPARVPQWTIFLETLIHDFDTLCFLNPDARPVRVHAVADALVRPDAKGAGHLDTAVVTVQFDNGAIATAEASFSALYGYDVRAEVFGSGGMITAGSGLSTDMTYYGPDGMHADTARRDTDLLHSAYLGELTAFVDAIRTHTPAVVTGQDARTALSIALAAIRSVETGSAVDLDG,failed
